According to IntAct's records for PubMed 17805301:

B1: CREB-regulated transcription coactivator 2 (Mus musculus), Q3U182 (parent)
chain: MATSGANGPGSATASASNPRKFSEKIALQKQRQAEETAAFEEVMMDIGSTRLQAQKLRLAYTRSSHYGGSLPNVNQIGCGLAEFQSPLHSPLDSSRSTRHHGLVERVQRDARRMVSPLRRYPRHIDSSPYSPAYLSPPPESGWRRMMPWGNLPAEKGQLFRLPSALNRTSSDSALHTSVMNPNPQDTYPGPTPPSVLPSRRGGGFLDGEMDAKVPAIEENVVDDKHLLKPWDAKKLSSSSSRPRSCEVPGINIFPSPDQPANVPVLPPAMNTGGSLPDLTNLHFPPPLPTPLDPEETVYPSLSGGNSTTNLTHTMTHLGISGGLGLGPSYDVPGLHSPLSHPSLQSSLSNPNLQASLSSPQPQLQGSHSHPSLPASSLAHHALPTTSLGHPSLSAPALSSSSSSSSTSSPVLSAPPYPASTPGASPRHRRVPLSPLSLPAGPADARRSQQQLPKQFSPTMSPTLSSITQGVPLDTSKLPTDQRLPPYPYSPPSLVIPTHPPTPKSLQQLPSQACLVQPSGGQPPGRQPHYGALYPPGSSGHGQQPYHRPINDFSLGNLEQFNMESPSTSLVLDPPAFSEGPGFLGSEGSMSGPQDPHVLNHQNLTHCSRHGSGPNIILTGDSSPGFSKEIAAALAGVPGFEVSASGLELGLGLEDELRMEPLGLEGLTMLSDPCALLPDPAVEDSFRSDRLQ

Variants of: B1
Details: with cop1_mouse Cop1, Q9R1A8
cop1_mouse Cop1, Q9R1A8, sequence (Q9R1A8 whole entry): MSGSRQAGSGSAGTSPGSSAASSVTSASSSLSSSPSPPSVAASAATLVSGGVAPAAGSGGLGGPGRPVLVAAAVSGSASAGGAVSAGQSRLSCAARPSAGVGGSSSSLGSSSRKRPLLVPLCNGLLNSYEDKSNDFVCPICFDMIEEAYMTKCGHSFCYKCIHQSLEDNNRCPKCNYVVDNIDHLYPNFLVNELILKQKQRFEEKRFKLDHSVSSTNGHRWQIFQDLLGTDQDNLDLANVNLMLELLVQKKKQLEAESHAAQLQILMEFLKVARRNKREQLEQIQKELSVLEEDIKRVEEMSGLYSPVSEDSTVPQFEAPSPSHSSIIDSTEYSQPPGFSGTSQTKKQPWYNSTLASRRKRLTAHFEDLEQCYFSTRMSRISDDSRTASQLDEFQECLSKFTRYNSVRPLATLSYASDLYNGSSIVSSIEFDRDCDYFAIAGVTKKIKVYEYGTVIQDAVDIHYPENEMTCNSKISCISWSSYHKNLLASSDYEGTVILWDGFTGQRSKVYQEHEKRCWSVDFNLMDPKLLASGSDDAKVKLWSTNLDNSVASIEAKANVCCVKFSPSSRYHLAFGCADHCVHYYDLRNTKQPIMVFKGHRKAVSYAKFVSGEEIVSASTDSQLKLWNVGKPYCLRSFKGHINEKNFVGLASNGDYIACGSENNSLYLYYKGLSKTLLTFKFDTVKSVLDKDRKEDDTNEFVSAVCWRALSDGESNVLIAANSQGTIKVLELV

| Variant | effect of a mutation on the interaction |
| --- | --- |
| V214A;P215A | disrupting interaction strength |
